From patent US20250340631A1 (HARBOUR BIOMED SHANGHAI, published 2025)
Substitutions are numbered along the chain they refer to. Read-outs that look alike come from different tables or passages of the source. One block for each binder: values may come before it.

Key:
human CLDN18.2 [1] = biological target: T1, human CLDN18.2 (human); assay: FACS on NUGC4_D8 cells
T1 construct: the HEK293 line was made with a GenScript plasmid; also called hCLDN18.2

human CLDN18.2 [2] = biological target: T1, human CLDN18.2; assay: cell-based or functional assay
[3] = biological target: CLDN18.2 of SNU620 cells (methionine to leucine at amino acid 149) (human, UniProt P56856-2 1-261); assay: cell-based or functional assay
Sequence of CLDN18.2 of SNU620 cells (methionine to leucine at amino acid 149) (P56856 other isoform, or with tags, fused parts or gaps limits assumed): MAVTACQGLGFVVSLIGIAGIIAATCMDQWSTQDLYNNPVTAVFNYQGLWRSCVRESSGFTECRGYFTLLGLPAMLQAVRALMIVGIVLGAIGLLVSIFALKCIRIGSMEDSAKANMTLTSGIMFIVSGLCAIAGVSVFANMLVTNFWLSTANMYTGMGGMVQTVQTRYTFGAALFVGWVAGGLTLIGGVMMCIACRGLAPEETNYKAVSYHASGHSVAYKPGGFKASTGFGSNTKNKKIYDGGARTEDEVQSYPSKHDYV

human CLDN18.2 [4] = biological target: T1, human CLDN18.2; assay: FACS on HEK293/hCLDN18.2 cells
[5] = biological target: T2, human CD3 on Jurkat cells (human, UniProt P07766 23-207); assay: FACS on Jurkat cells (CD3)
T2 construct: whole, on cells; on cells it stands in the whole CD3/TCR complex; also called CD3-expressing cells
T2 sequence (P07766 23-207): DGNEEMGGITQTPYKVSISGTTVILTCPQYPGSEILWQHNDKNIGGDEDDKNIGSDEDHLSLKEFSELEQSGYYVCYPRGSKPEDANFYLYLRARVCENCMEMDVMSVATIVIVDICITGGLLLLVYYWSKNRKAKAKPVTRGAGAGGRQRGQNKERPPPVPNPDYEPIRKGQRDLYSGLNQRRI
Experimental: (§1) Antibodies were assayed for binding affinity by FACS. Test cells include HEK293/hCLDN18.2, HEK293/hCLDN18.1, NUGC4_D8 and Jurkat cells. […] The cell density was adjusted to 10⁶ cells/mL, and 50 μL of the cell suspension was added to each well of a 96-well plate. Antibodies were diluted to different concentrations with FACS buffer, and 50 μL of the antibody dilution was added to each well of the 96-well plate. After 2 h of incubation at 4° C., the plate was washed twice with FACS buffer. […] After 1 h of incubation at 4° C., the plate was washed twice with FACS buffer. The cells were resuspended in fixative solution, and then the fluorescence of the cells was monitored using an FACS instrument (ACEA NovoCyte).

Human CD16a(F) = Human CD16a(F) (human, UniProt P08637 17-208); assay: BLI (Octet), antibody on FAB2G sensor
Sequence of Human CD16a(F) (P08637 17-208 limits assumed): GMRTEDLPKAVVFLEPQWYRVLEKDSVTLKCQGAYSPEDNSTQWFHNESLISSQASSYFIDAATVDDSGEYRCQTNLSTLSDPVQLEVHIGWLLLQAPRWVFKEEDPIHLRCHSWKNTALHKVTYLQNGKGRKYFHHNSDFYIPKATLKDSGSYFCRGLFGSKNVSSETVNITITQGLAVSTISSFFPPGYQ
Experimental: (§2) The binding kinetics between proteins and antibodies was analyzed by the Biolayer Interferometry (BLI) technique using an Octet Red 96e (Fortebio) system. The rotation speed was set at 1000 rpm for the system. […] After equilibrated in the buffer for 120 s, the FAB2G sensor was allowed to bind to 2-fold serially diluted human Fc receptor protein. Finally, the FAB2G sensor was immersed in a 10 mM glycine-hydrochloric acid solution at pH 1.5 for regeneration to elute the proteins bound to the sensor. The affinity assays of antibodies for FcRn were performed under the conditions of both pH 6.0 buffer and pH 7.4 buffer. […] For the interactions of fast binding and fast dissociation, the “steady state” method was selected to fit the data to obtain KD(M) values.

Human CD32a(H) = biological target: T3, Human CD32a(H) (human, UniProt P12318 36-218, limits assumed); assay: BLI (Octet), antibody on FAB2G sensor
T3 sequence (looked up): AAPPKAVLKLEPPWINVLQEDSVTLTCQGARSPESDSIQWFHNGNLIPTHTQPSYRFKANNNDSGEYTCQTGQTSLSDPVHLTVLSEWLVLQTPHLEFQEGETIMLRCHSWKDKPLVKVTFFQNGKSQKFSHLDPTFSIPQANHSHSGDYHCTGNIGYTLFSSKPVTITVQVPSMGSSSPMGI
Experimental: as §2

Human CD32b = biological target: T4, Human CD32b (human, UniProt P31994 46-217, limits assumed); assay: BLI (Octet), antibody on FAB2G sensor
T4 sequence (looked up): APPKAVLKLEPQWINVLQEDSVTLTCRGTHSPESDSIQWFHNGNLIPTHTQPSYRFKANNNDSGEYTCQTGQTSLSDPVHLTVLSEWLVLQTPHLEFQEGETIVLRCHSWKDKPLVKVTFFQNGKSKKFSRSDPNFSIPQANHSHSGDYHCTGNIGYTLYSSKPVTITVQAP
Experimental: as §2

Human CD64 = biological target: T5, Human CD64 (human, UniProt P12314 16-288, limits assumed); assay: BLI (Octet), antibody on FAB2G sensor, 1:1 global fit
T5 construct: bought recombinant protein
T5 sequence (P12314 16-288 limits assumed): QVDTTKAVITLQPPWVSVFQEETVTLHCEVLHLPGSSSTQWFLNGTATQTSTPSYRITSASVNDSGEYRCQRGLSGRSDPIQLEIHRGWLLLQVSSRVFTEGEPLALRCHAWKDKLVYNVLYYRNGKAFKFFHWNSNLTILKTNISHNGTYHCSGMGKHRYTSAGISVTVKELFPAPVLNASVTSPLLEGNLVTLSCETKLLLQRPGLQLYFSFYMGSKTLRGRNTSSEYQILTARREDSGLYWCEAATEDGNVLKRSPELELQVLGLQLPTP
Experimental: as §2

Human CD16a(V) = Human CD16a(V) (human, UniProt P08637 17-208); assay: BLI (Octet), antibody on FAB2G sensor, steady state fit
Sequence of Human CD16a(V) (P08637 17-208 F176V limits assumed): as the sequence (P08637 17-208 limits assumed) above, with F160V counted along it
Experimental: as §2

Human FcRn = Human FcRn (human, UniProt P55899 24-297; P61769 21-119); assay: BLI (Octet), antibody on FAB2G sensor, pH 6.0, 1:1 global fit; pH 6.0; 400-25 nM
Experimental: as §2

human CLDN18.2 [6] = biological target: T1, human CLDN18.2; assay: competition FACS on HEK293/hCLDN18.2 cells; competitor 10 nM biotinylated PR000400
Experimental: This example is to study the binding of anti-human CLDN18.2 bispecific antibodies to the epitope region of a human CLDN18.2 antigen. Competitive binding experiments were performed at the cellular level using human CLDN18.2-overexpressing HEK293/hCLDN18.2 cells. […] The mixture was well mixed and incubated at 4° C. for 30 min. 25 μL of the corresponding serially diluted non-biotinylated anti-human CLDN18.2 antibody was added. The mixture was well mixed and incubated at 4° C. for 1 h. The cells in each well were washed twice with 200 μL of pre-cooled FACS buffer (2% BSA in DPBS) and centrifuged at 500 g at 4° C. for 5 min, and then the supernatant was discarded. A fluorescent secondary antibody (Jackson ImmunoResearch, 016-540-084, 1:500) was added. The mixture was incubated at 4° C. in the absence of light for 1 h. The cells in each well were washed twice with 200 μL of pre-cooled FACS buffer (2% BSA in DPBS) and centrifuged at 500 g at 4° C. for 5 min, and then the supernatant was discarded. Finally, the cells in each well were resuspended in 200 μL of pre-cooled FACS buffer, and the fluorescence signal values were read using a ACEA_NovoCyte.

human CLDN18.2 [7] = biological target: T1, human CLDN18.2; assay: competition FACS on HEK293/hCLDN18.2 cells; competitor 200 nM biotinylated PR004549
[8] = biological target: T2, human CD3 on Jurkat cells; assay: FACS on Jurkat cells
Experimental: as §1

[9] = biological target: T2, human CD3 on Jurkat cells; assay: FACS on Jurkat cells (CD3); remark: listed apart in the source
Experimental: as §1

human CLDN2 = biological target: T6, human CLDN2 (human, UniProt P57739 1-230); assay: FACS on HEK293 cells transiently expressing human CLDN2
T6 construct: whole, on cells; also called hCLDN2
T6 sequence (looked up): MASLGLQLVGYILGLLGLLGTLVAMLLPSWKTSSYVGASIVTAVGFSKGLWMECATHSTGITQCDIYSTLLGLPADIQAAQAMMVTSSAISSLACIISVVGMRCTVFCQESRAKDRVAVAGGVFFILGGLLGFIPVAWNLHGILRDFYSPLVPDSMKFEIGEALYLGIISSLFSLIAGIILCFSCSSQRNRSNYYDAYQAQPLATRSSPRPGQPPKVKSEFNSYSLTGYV
Experimental: Antibodies were assayed for binding affinity to human CLDN18.2 paralogous proteins by FACS (ACEA NovoCyte). CLDN1, CLDN2, CLDN3, CLDN4, CLDN6 and CLDN9 genes of the human CLDN18.2 paralogous family were transiently transfected into HEK293 cells. […] The cell density was adjusted to 10⁶ cells/mL, and 50 μL of the cell suspension was added to each well of a 96-well plate. An antibody was diluted to 60 nM with FACS buffer, and 50 μL of the antibody dilution was added to each well of the 96-well plate. After 2 h of incubation at 4° C., the plate was washed twice with FACS buffer. Then, an FACS buffer containing a secondary antibody was added. After 1 h of incubation at 4° C., the plate was washed twice with FACS buffer. The cells were resuspended in fixative solution, and run FACS.

EC50 (human CLDN18.2 [1]): 27.5 nM
TDCC, Titer EC50 (pM), NUGC4_D8 (human CLDN18.2 [2]): 10 pM
TDCC, Titer EC50 (pM), SNU620 [3]: 31.6 pM
EC50 (human CLDN18.2 [4]): 12.8 nM
binding result [5]: binds
binding result (Human CD16a(F)): no binding (tested: 10000-625 nM)
binding result (Human CD32a(H)): no binding (tested: 10000-625 nM)
binding result (Human CD32b): no binding (tested: 10000-625 nM)
Kd (Human CD64): 50.6 nM
koff (Human CD64): 0.0438 s⁻¹
kon (Human CD64): 866000 M⁻¹ s⁻¹
Kd (Human CD16a(V)): 1800 nM
Kd (Human FcRn): 182 nM
koff (Human FcRn): 0.0586 s⁻¹
kon (Human FcRn): 322000 M⁻¹ s⁻¹
IC50 (human CLDN18.2 [6]): 81.8 nM
Maximum inhibition rate (%) (human CLDN18.2 [6]): 98.4%
IC50 (human CLDN18.2 [7]): 67.5 nM
Maximum inhibition rate (%) (human CLDN18.2 [7]): 48%
B1: PR005397 (bispecific antibody, human IgG1, lambda, L234A L235A)
chain: EVQLVESGGGLVQPGGSLRLSCAASGFTFSSYWMHWVRQVPGKGLVWVSRISSTGSRTIYADSVKGRFTISRDNAKNTLYLQMNSLRAEDTAVYYCARGEDHDILTGYPIRGQGTTVTVSSGGGGSGGGGSGGGGSEVQLVESGGGLVQPGGSLRLSCAASGFTFSSYWMHWVRQVPGKGLVWVSRISSTGSRTIYADSVKGRFTISRDNAKNTLYLQMNSLRAEDTAVYYCARGEDHDILTGYPIRGQGTTVTVSSASEPKSSDKTHTCPPCPAPEAAGGPSVFLFPPKPKDTLMISRTPEVTCVVVDVSHEDPEVKFNWYVDGVEVHNAKTKPREEQYNSTYRVVSVLTVLHQDWLNGKEYKCKVSNKALPAPIEKTISKAKGQPREPQVCTLPPSREEMTKNQVSLSCAVKGFYPSDIAVEWESNGQPENNYKTTPPVLDSDGSFFLVSKLTVDKSRWQQGNVFSCSVMHEALHNHYTQKSLSLSPGK
heavy: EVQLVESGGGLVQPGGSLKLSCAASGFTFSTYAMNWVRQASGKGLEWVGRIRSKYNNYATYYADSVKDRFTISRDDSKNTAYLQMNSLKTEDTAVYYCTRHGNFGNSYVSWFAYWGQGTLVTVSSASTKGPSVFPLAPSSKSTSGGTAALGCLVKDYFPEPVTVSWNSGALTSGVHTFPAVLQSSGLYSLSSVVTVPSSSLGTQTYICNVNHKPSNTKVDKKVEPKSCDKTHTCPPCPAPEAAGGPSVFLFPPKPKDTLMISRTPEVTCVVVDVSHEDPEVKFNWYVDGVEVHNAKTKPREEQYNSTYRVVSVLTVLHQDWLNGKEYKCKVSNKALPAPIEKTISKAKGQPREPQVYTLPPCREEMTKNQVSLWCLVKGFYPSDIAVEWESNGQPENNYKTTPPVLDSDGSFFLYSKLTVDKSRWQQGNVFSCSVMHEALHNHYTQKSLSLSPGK
light: QAVVTQEPSLTVSPGGTVTLTCRSSTGAVTTSNYANWVQQKPGQAPRGLIGGTNKRAPWTPARFSGSLLGDKAALTLLGAQPEDEAEYFCALWYSNLWVFGGGTKLTVLGQPKAAPSVTLFPPSSEELQANKATLVCLISDFYPGAVTVAWKADSSPVKAGVETTTPSKQSNNKYAASSYLSLTPEQWKSHRSYSCQVTHEGSTVEKTVAPTECS
notes: structure 1; CD3 Fab from PR003886, CLDN18.2 VH from PR007246; LALA

EC50 [8]: 40.6 nM
EC50 (human CLDN18.2 [1]): 31.3 nM
TDCC, Titer EC50 (pM), NUGC4_D8 (human CLDN18.2 [2]): 48.5 pM
binding result (Human CD16a(F)): no binding (tested: 10000-625 nM)
binding result (Human CD32a(H)): no binding (tested: 10000-625 nM)
binding result (Human CD32b): no binding (tested: 10000-625 nM)
Kd (Human CD64): 53.9 nM
koff (Human CD64): 0.0471 s⁻¹
kon (Human CD64): 874000 M⁻¹ s⁻¹
Kd (Human CD16a(V)): 3000 nM
Kd (Human FcRn): 210 nM
koff (Human FcRn): 0.0626 s⁻¹
kon (Human FcRn): 298000 M⁻¹ s⁻¹
B2: PR006023 (bispecific antibody, human IgG1, lambda, L234A L235A)
chain: B1 chain
heavy: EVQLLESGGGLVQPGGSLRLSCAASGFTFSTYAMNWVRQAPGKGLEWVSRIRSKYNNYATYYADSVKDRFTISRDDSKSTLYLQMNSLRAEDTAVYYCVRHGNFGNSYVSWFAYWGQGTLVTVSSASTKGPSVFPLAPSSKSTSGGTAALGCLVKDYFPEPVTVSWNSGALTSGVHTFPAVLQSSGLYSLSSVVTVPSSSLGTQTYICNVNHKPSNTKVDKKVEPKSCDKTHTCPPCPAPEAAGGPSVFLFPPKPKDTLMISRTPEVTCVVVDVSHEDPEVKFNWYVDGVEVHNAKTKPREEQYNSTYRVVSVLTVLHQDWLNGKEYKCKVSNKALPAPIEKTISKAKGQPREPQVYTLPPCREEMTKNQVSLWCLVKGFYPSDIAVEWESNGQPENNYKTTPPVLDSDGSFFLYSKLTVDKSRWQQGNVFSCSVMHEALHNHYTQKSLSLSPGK
light: B1 light
notes: structure 1; CD3 Fab from PR001848, CLDN18.2 VH from PR007246; LALA

EC50 (human CLDN18.2 [1]): 46.7 nM
binding result [9]: binds
B3: PR007080 (bispecific antibody, human IgG1, lambda)
chain: B1 chain with S52D, T54R, S188D, T190R, G281A
heavy: EVQLVESGGGLVQPGGSLKLSCAASGFTFSTYAMNWVRQASGKGLEWVGRIRSKYNNYATYYADSVKDRFTISRDDSKNTAYLQMNSLKTEDTAVYYCTRHGNFGNSYVSWFAYWGQGTLVTVSSASTKGPSVFPLAPSSKSTSGGTAALGCLVKDYFPEPVTVSWNSGALTSGVHTFPAVLQSSGLYSLSSVVTVPSSSLGTQTYICNVNHKPSNTKVDKKVEPKSCDKTHTCPPCPAPEAAGAPSVFLFPPKPKDTLMISRTPEVTCVVVDVSHEDPEVKFNWYVDGVEVHNAKTKPREEQYNSTYRVVSVLTVLHQDWLNGKEYKCKVSNKALPAPIEKTISKAKGQPREPQVYTLPPCREEMTKNQVSLWCLVKGFYPSDIAVEWESNGQPENNYKTTPPVLDSDGSFFLYSKLTVDKSRWQQGNVFSCSVMHEALHNHYTQKSLSLSPGK
light: B1 light
notes: structure 1; CD3 Fab from PR003886, CLDN18.2 VH from PR007244; AAA

EC50 (human CLDN18.2 [1]): 49.3 nM
binding result [9]: binds
B4: PR007081 (bispecific antibody, human IgG1, lambda)
chain: B1 chain with S52N, S53F, T54D, G55S, S188N, S189F, T190D, G191S, G281A
heavy: B3 heavy
light: B1 light
notes: structure 1; CD3 Fab from PR003886, CLDN18.2 VH from PR007242; AAA

EC50 (human CLDN18.2 [1]): 73.2 nM
binding result [9]: binds
B5: PR007079 (bispecific antibody, human IgG1, lambda)
chain: B1 chain with T54A, T190A, G281A
heavy: B3 heavy
light: B1 light
notes: structure 1; CD3 Fab from PR003886, CLDN18.2 VH from PR007243; AAA

EC50 [8]: 85.9 nM
EC50 (human CLDN18.2 [1]): 20.5 nM
TDCC, Titer EC50 (pM), NUGC4_D8 (human CLDN18.2 [2]): 11 pM
TDCC, Titer EC50 (pM), SNU620 [3]: 38.5 pM
EC50 (human CLDN18.2 [4]): 16 nM
binding result (Human CD16a(F)): no binding (tested: 10000-625 nM)
binding result (Human CD32a(H)): no binding (tested: 10000-625 nM)
binding result (Human CD32b): no binding (tested: 10000-625 nM)
Kd (Human CD64): 47.1 nM
koff (Human CD64): 0.0417 s⁻¹
kon (Human CD64): 885000 M⁻¹ s⁻¹
Kd (Human CD16a(V)): 2300 nM
Kd (Human FcRn): 215 nM
koff (Human FcRn): 0.0644 s⁻¹
kon (Human FcRn): 300000 M⁻¹ s⁻¹
IC50 (human CLDN18.2 [6]): 122 nM
Maximum inhibition rate (%) (human CLDN18.2 [6]): 96.2%
IC50 (human CLDN18.2 [7]): 74.4 nM
Maximum inhibition rate (%) (human CLDN18.2 [7]): 48%
B6: PR005411 (bispecific antibody, human IgG1, lambda, L234A L235A)
chain: B1 chain with T54D, G55A, T190D, G191A
heavy: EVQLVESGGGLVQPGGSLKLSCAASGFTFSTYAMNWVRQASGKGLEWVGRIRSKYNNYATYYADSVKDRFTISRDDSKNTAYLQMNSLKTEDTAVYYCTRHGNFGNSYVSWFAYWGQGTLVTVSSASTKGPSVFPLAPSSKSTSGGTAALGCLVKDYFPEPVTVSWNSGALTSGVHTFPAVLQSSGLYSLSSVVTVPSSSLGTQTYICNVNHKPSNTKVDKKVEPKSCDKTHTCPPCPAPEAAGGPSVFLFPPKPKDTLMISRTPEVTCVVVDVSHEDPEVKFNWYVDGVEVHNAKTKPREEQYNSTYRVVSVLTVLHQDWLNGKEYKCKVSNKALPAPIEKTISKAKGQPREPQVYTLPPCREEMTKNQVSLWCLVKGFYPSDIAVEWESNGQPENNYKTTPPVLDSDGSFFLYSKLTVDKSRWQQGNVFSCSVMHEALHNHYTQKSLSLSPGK
light: B1 light
notes: structure 1; CD3 Fab from PR003886, CLDN18.2 VH from PR007245; LALA

binding result (human CLDN2): binds
B7: Positive Control (hCLDN2 row) (antibody, human IgG1, kappa, V domains shown)
VH: VKLLQSGAALVPKPGDSMKMSCKASGYTFTHDIIHWVRQSHGKSLEWIGYINPYNGGTNYNEKFKTKATMTVDKPSSTAYLELTRVSSEASAIYYCATGSFDYWGQGVMVTVSS
VL: DVVLTQTPGSLSLAIGQSASISCKSSQSLLGTSGKTFLNWILQRPGQSPERLIYQVSKLYSEVPDRFSGSGSETEFTLKISRVEAEDLGVYYCWQGIHFPHTFGAGTKLELKR
notes: The sheet prints only 'Positive Control'; also called PR005080; Human Claudin-2 Antibody (PR005080)
